Our source for the protein production values is a protein production outcome set (Wang et al. 2014).

The nature of this data set: label from the status in PepcDB records.
Consider “MVGQVIRKRGAYPEYTVEDVLAVIFLLKEPLGRKQISERLELGEGSVRTLLRKLSHLDIIRSKQRGHFLTLKGKEIRDKLLSMFSEPIGVSVDGYPGIAIVVKNPPEFKSIELRDEAIKFDAKGAMILTVKDNEIVFPEDFRPLKEMYPEVAKKIVDYEDGDAVIITWAETPAKALKSAIHVAYILKKEEITPEILEVVK”, for which the protein production entry is “not failed”.
Next, “MVGSSETETKEHREAEERSSRESATATGKVSGKENELRPTYVYLLMMPENHNVDVQQTLQEQRKRNIKKARIEARLKLDQIRPTVVLENSRATKMMIEWGFTDFRKLQGSNLGNKKWICWVRKHCC”: “not failed”; “MVHAFLIHTLRAPNTEDTGLCRVLYSCVFGAEKSPDDPRPHGAERDRLLRKEQILAVARQVESMCRLQQQASGRPPMDLQPQSSDEQVPLHEAPRGAFRLAAENPFQEPRTVVWLGVLSLGFALVLDAHENLLLAEGTLRLLTRLLLDHLRLLAPSTSLLLRADRIEGILTRFLPHGQLLFLNDQFVQGLEKEFSAAWPR”: “failed”.
Next, “MVHEKKKMRKNHKKITHKGKKITTGAASVLLGAGIVVGANARPVKATSSREDEITEVDTINVISSETEKADVEQRTDTTETVETEGNVDNTNTEVSVPIDETINTEAQAANNTTQVESTVEDTTQEETTETQQNPSVDNQEPVLSDPPSVESPEDSATEVTTTKTTDEVKNAADEANKENKDKLDAEINKAEDNGHTVTQDGDKVYKADATNIDKIIEDLNQFTADQITDIETKLAKYKEELEAYKADQVRYEAELKNYQTAKDAYVKKLEEWGLYKPGDIDPSDISQSLILGEEKNSKVEVLNKGSVVDEGTGSILNGLLNHFYTIDEKFDGEFLKLQYTNLENITYMGKNIDSIQIIFSGWNPNYKGKNADKRTSGIYFSDKLTDGFFYVNSDGVTMEMILFENGKTINLDKNSAYITAGSLNSQGTGNDYIEKAEIFNNSSEYGGSAVTFQDSFIRRHDGTYGGDVLYADQNIEVLAVYPGKDQTLEDAIEEQKKLALEAGWKQEIIDKFINWDSSTDRSKAIFGAGAFMVYGNKIKIRFSNGIGSAWATYSTSIPGMAFREEKPKEPTVPEPPKLDLTYTPGHIELSKSNVHIHYVDVHDTAQAGKNDSFVPDDGIELDDHVDHQLDLLIGTGYNHDLWNFEDAGYILAEEIKDGVQNGTVIKDDQHHYVYLKHKFIPTTDEENEKKDVNQVIHYVYDATGETAYKDYHAVTLHFIKSGQKDVVNGNIIWGNWTLAQDFAGVKSPSIEGYHLKDKNDDVVGPYTIEVTEKNYQNNLDVEYTVRYVANATQELNLKKEVNQVIHYIYENGTKAHDDYHALTLLFEKKGIKDLETGEETWGEWTKTQTFVVVKSPDIQNYIADRLEVGPYEITVTDENYKTNLDKDDIVIYRARIEEVTRDKVVNQVIHYIYEDGSTARPDHVSVKLVFTQTGVKNLATNTTNWNGEWTKTQTFVVVKSPEIEGYTADREEVGPYDITVTNENYNDKLDKEDTVIYRANTNVPDNPDPDNPTPDNPDPDNPTPDTPTPDPTPGDDEEIATPPLPEDEIGNYPSQSDEDDEEERTAPHATGKETRSGTNKNNARVISLENAGSDDSVTPENVSTEATDKTDEKQTTVNSTNEKTLPATGEEKDDFAKVMSGLAAALGITGLAVTSKRRKATAKRSKKDKKNGK”: “failed”; “MVIDLAVDCQRQAAVLRQQRLRTARRVDDGQTLVHQDGTGIDVHAAPVRPAMALPLRTFQGLPAQGLQVVAGLQAEDTEDGTHGNTPGKVVMGGRRINTVQDITHKKNPHRPMRVFWKLGVCVGTSPSRRPASAAHDYSRADCCGDWRWRRWTETMSWADRIPLSAATQLLRWQPSRAGKPGIPRPPRDRGRVARIMSPPSSEASAMTPRIGRLAFAALIPLVLLQGCSTTAPRTEPAKLRQLEQTAADGSFDSIWEVASQLESRNDPRAIGWYERAAATTPWTFRNALAELALGRIWASGTLTHADSPYIDQRAALRASPRKGERWYLAAAMHGNPYAIRELAKFHRERGEAAAALRWDLRVAIYERAASGPSGLPAAIAPRDGDIHPLVRDIQRRARGGDAEAQVDLGALYEKGMGGMNRDGAEALRWYRRAADQGNVYGQYFYALLLGRGSSGVTRDEETAAIWFAKASAQRFYIADASHWREAIKPPFWTFD”: “failed”; “MVIGQKVLLARIPKMGDNYSTYLLDIEGTVCPISFVKETLFPYFTNKVPQLVQQDTRDSPVSNILSQFHIDNKEQLQAHILELVAKDVKDPILKQLQGYVWAHGYESGQIKAPVYADAIDFIKRKKRVFIYSSGSVKAQKLLFGYVQDPNAPAHDSLDLNSYIDGYFDINTSGKKTETQSYANILRDIGAKASEVLFLSDNPLELDAAAGVGIATGLASRPGNAPVPDGQKYQVYKNFETL”: “not failed”.
With “MVIINTAAYHFVSITQPQTLADQIRAHGEIAGLKGTVLIANEGINLFLAGEKEAINAFYAWLCADVRFAALHVKYSVSAYKPFARFKVKVRPEIISFRRGDISPLQVRAPGVSAHTLRDWLRRGCDDNGRRLVMLDARNQQEIAYGTFSGAMTLPITKFTGFPGALAHYRDLLSDATVVSFCTGGIRCEKAVLWMRADGMDNVLQLEGGILGYFEQVGGEGYDGRCFVFDKRVALDPQLRPLYDMRVVASFARSEIS” the entry was “failed”; with “MVINIRRSRPDEGDKLTAIWCRSVDATHDFLTKAYRKELEEMVRAFLPEAPLWVAVSTEDQPIAFMLLTGDHMDALFVDPDVRGCGVGKLLIEHALSLTPKLTTNVNEQNEQAVGFYQKMGFRVTGRSETDDLGQPYPLLNLMYEQQAEADYD”, “not failed”.
Turning to “MVIPALPKIEDQFSTSATTVAWITSAYLIVGAVASPVFGKLGDRYGKKKIYLLAIAFYSLAVLIAGFSTNIYMLIFARAIQGLGFAVFPIAIAIITDLFPRERVAWAQSILSATLALGPALGLLIGAYIVQDLGWQYAFHTAFILSIILMFISIRFIQEIPSKTKERIDYLGAVFLMLAVISLLVYLTEGPSIGWFSATQFSLILTSIISFGVFIFVERRVAEPLMKLDLFRIRNIMVANISGLIAGTAMFLMFIGLTYYAQLPKPYGLGLSIIDSGLLMAPVALTMMVVGPIVGRLINSTGPKPLLIFGSIVGIIGFLLLNAFNSTNIQVLLDTVVASVGIISLMIPLVNMVAVSLPEDQRGVGIGMNTLIRSIGSSVGPVISTVFMDTYTAWIGYLFNNQYLPIASVPSSEAFHYIYLVGICLMFINLLVALLTKNYVLKQKVKTTESVV”, the protein production entry is listed as “failed”.
With “MVKGDITTAFIAEEYPDGFQGAVLDEPTLRRVAAAAAAMNRVAEIRRTRISGTMNNHERHVGVDWVVALQGESYHVSIAADREGSTVSFSDGSSLRVTSDWTPGQPLEHHHHHH” the entry was “failed”; with “MVKGKVINLHPTSSRFFKIGIKHYERGEIELAIERLKRALELDSKNIEIKFNLAGLLAQIGDFESSNKLLTELTTDNPEFYDSLFGLGCNFFEMGKLREAKHFLRRYLKLSNNTEFKEAAEDLLDFIETQQEFEREQKEMEKLTKLLERGNFLLENGRYEDAVKYFKMILAKDDTIFAARNNLSLAYFYMGEIEKAIHEAKKVLEIDKYNVYANCNLAFFYSTIGKTKELKKQLKTILELKTYDHKDKIKVLDTLIKLNQHAAIVDRAGELFEITKEPYFRHIQAISLYNTKQYIKAKKIWKDLKKNYNMPEIKIDYFLKKIDDVMKTFKKDTIDYFETGFGNLSKLEEKEFRSQLQKHIDMYFSQTFEENAKRIMDIIAENVKLNNEDKDAISQLLNALPLEKQRLNFTAIAAIVYYVYKKYLLRQKVKQKDVAERFGISQAVFSKWFKEFKGLLLGEDV”, “failed”.
With “MVKGLVVAGALLMASGCQMLQSMMPAGDEEMPRVREGTLAALPATETRQVQGIEAGSGPTDDVSIETVMESYKALLPLVDDPRKQVTIRHRLADLEFQRAERKMADTAVDELAGAIEAYQRLLSEYPEREGNDKIYYQLARAWELRGATPQQLDTLDTLVRRYPDSDYWIEAQFRRGDLLFIDGRYREAEQAFDEVTLASQERMADASFLVNAHYMKGWSLFKQAQYQEALFSYVEVLDLVMPEGQPVEDVDQRSQTLIEDLFRVVGLSLSYLDGAETLQALFRQTGGRPYEILVYDRYSELLVEREQYGDAIDVFEAYIEDHPASPWAPRYHIRIIDTLELAGFTRTVPERKADFVSLYGIYSDYWQSAGPDAMGFIEQQLEQLLPELADRQYLLAGESSDQQQADDHYRKAASYYAEFAATFPDHPRTPERLFLLGETYLELEDWAEAIAAFERVAYDYPQDTVSGRAAEAGYASVLAFREYSITWNSLPISEQAAYQELQQLNRLRFANAFPEDPRAPAVYYIALQHEFDRNNWEETVNMAARLVTWQPTPSAELTTEALLLSGHSLSELARYSEAEQAYRDALATMAEDDERRSGVRENLAAAVYRQAEQLADAGNVEAAVGEFLRVGTVVPESALRANAEYDAASLLITANLWEQAIGVLTSFRQAFPDHELIDTVPAKLALAYRETAQWERAADELQQMVALATTPEERRENLLIAAELYDQAGNRDKAIDTWRNYANSHPEPADVYMEAANRLAELYQEADDTVKRDYWLRKQMETVDRNPDAADDRMRYLAASASATLAREALARYDSIRLTLPLNESMTAKTDALERAVNAYKKTASYGLSSFATEAGYQIAHIYGRLGADLMDSERPTGLSELELAQYELLLEEQAYPFEDNAIDIHEQNIRRAREGIFDEWVKRSYEALKVLLPGRYRKEEVTSGVVYELD” the entry was “failed”.
With “MVKKSYVINWARDLANRGVGVNYDGAFGSQCVDLPFWILGKFFGRPISGNAIDLLNSAKAAGYQVIYDAPGVNPRVGDIFVMHSIAYDGKDYGHTGLVIEDSDGHSIKTIEQNVDGNADNLYVGGPARYRTRSFNGIIGWIRPPYENEILENKREETDMRDFFVITNSEYTFAGVHYAKGAVLHVSPTQKRAFWVIADQENFIKQVNKNIEYVEKNASPAFLQRIVEIYQVKFEGKNVH” the entry was “not failed”; with “MVKPLRLNDRHQQILRATVQHYIATAEPVGSHTLAQEYQFAVSSATIRNALGQLEKAGLLYQPHVSAGRVPSDSGYRIYVDNLLTWSDRQSRTVKQRLENEINGDNWHFEALIQRMGQILAGLSGYIALITFPQTETVQLRHLQLMLLPSHQILIILVTDSYHTHSATLDLPAAMEAKEEGELEQELAIFSNFLNAQLRGKNLSELSHLNWQELDQKFSIYADFLKGLQQQIKPLLQRRMAGPLVVHGVSKVIQQPEFSQLEQVQMLLSLLEQEQDKLFSLLFDPDNYGDNLANLGQEMNLLTGETMPKTRPVVTIRIGAENPLESMHPCTLVSAIYRQQEIPMGSVSILGPTRMVYQQTIPLVEQAAECLSEALSKN”, “failed”; with “MVKSIVILIETVTMKIPAVYSDGSFKTFNDSETTAQKLVDSGVVNTFAFGPTLVENGKVAVSENEEVGQDMADNPRTAIVVNEESDRSVHYIVIVSDGRTSESSGLTLYEMAELMKSYGVMTGYNLDVGDSSTMYSNGQVINKPTRKRKQNLRKGGERYRLHRLLKNLLASTFSPPILVLEHHHHHH”, “not failed”.
“MVLFHLIKKESLQIFRNRTALLMMVIFPILMIVILSFAFKSSFNTATTVPKLTIRYQLEGEKTDYQKNFLAFLKVLNQKLHLETKPSNSLEKDRQRVSEGALTAVLEVKKNQTIKVITNNINQQNADLINMLVKNYVDNAKTYDSIAALYPQQLNHIRKRSVDYVKVSSIQTSKGMTSADYYAISMFTMITFYSMMSAMNLVLSDRQQRITNRIHLTGVSPSFLVFGKLIGAMLATTVQLSLLYIFTRFVLRVNWGTNEWMLIGITASLVYLSVAIGIGLGISIKNEAFLTVASNTIIPIFAFLGGSYVPLTTLHSSIINQLSNISPIKWVNDSLFYLIFGGQYNPIPVTLIVNISIGTIFIILALIGMRKQVTT”: the protein production result is reported as “failed”.
